Measurements reported in patent US20200317768A1 (published 2020).
Residue numbers refer to the chain shown, from its start.

T1: cynomolgus monkey FcγRIIa1 extracellular domain with C-terminal His-tag (cynomolgus monkey)
T1 construct: Expressed in FreeStyle 293 cells and purified; also called cyno FcγRIIa1; cynoFcgRIIa1; not shown: C-terminal His-tag
T1 chain: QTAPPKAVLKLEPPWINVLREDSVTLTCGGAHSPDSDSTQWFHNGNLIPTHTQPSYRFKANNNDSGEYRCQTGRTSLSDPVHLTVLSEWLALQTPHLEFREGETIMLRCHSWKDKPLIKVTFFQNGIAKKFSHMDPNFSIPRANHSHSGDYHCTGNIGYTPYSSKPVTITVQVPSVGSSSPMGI

T2: cynomolgus monkey FcγRIIa2 extracellular domain with C-terminal His-tag (cynomolgus monkey)
T2 construct: Expressed in FreeStyle 293 cells and purified; also called cyno FcγRIIa2; cynoFcgRIIa2; not shown: C-terminal His-tag
T2 chain: T1 chain with P95T, T121A, I127K, A128S, K130N, D135N, R142Q

T3: cynomolgus monkey FcγRIIa3 extracellular domain with C-terminal His-tag (cynomolgus monkey)
T3 construct: Expressed in FreeStyle 293 cells and purified; also called cyno FcγRIIa3; cynoFcgRIIa3; not shown: C-terminal His-tag
T3 chain: T1 chain with P95T, T121A, A128S, H133P, D135N

T4: cynomolgus monkey FcγRIIb extracellular domain with C-terminal His-tag (cynomolgus monkey)
T4 construct: Expressed in FreeStyle 293 cells and purified; also called cyno FcγRIIb; cynoFcγRIIb; not shown: C-terminal His-tag
T4 chain: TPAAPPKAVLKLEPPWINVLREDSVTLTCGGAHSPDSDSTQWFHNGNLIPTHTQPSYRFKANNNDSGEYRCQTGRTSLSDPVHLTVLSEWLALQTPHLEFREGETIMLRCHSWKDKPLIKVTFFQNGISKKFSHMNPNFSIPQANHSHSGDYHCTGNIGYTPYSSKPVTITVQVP

T5: human FcγRIIaH extracellular domain with C-terminal His-tag (human, UniProt P12318 34-217)
T5 construct: Expressed in FreeStyle 293 cells and purified; also called human FcγRIIa (type H); FcgRIIaH; not shown: C-terminal His-tag
T5 sequence: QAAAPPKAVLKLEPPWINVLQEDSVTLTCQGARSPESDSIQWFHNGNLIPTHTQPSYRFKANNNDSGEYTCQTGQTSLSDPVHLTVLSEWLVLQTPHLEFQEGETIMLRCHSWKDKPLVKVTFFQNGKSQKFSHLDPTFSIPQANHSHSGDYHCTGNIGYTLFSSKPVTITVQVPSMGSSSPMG

T6: human FcγRIIaR extracellular domain with C-terminal His-tag (human, UniProt P12318 34-217)
T6 construct: Expressed in FreeStyle 293 cells and purified; also called human FcγRIIa (type R); FcgRIIaR; not shown: C-terminal His-tag
T6 chain: T5 sequence with H134R

T7: human FcγRIIb extracellular domain with C-terminal His-tag (human, UniProt P31994 43-217)
T7 construct: Expressed in FreeStyle 293 cells and purified; also called humanFcgRIIb; not shown: C-terminal His-tag
T7 sequence: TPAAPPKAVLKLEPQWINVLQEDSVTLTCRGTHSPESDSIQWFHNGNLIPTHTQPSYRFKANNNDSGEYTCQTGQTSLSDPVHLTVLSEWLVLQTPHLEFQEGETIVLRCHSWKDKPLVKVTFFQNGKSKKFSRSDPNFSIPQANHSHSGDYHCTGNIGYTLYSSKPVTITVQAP

B1: M103205H795-MY172 / M103202L889-SK1 (antibody, human IgG1, kappa)
heavy: QVTLKESGPVLVKPTETLTLTCTVSGIDLSHDDISWVRQAPGKGLEWVGIISYAGSTYYASWAKGRLTISKDTSKNQVVLTMTNMDPVDTATYYCARGVPAYSHGGDLWGQGTLVTVSSASTKGPSVFPLAPSSKSTSGGTAALGCLVKDYFPEPVTVSWNSGALTSGVHTFPAVLQSSGLYSLSSVVTVPSSSLGTQTYICNVNHKPSNTKVDKKVEPKSCDKTHTCPPCPAPELLNGPSVFLFPPKPKDTLMISRTPEVTCVVVDVSEEDPEVKFNWYVDGVEVHNAKTKPREEQYNSTYRVVSVLTVLHQDWLNGKEYKCKVSNKALPAPIEKTISKAKGQPREPQVYTLPPSREEMTKNQVSLTCLVKGFYPSDIAVEWESNGQPENNYKTTPGVLDSDGSFFLYSKLTVDKSRWQQGNVFSCSVMHEALHNHYTQKSLSLSP
light: DIVMTQSPATLSLSPGERATLSCTSSQSVYHANWLSWFQQKPGQPPKLLIYWASTLAYGVPSRFSGSGSGTDFTLTISSLQPEDAATYYCAGGYGGGRYAFGQGTKVEIKRTVAAPSVFIFPPSDEQLKSGTASVVCLLNNFYPREAKVQWKVDNALQSGNSQESVTEQDSKDSTYSLSSTLTLSKADYEKHKVYACEVTHQGLSSPVTKSFNRGEC
notes: Position 396 variant derived from MY052, expressed with M103202L889-SK1 as light chain
B2: M103205H795-MY181 / M103202L889-SK1 (antibody, human IgG1, kappa)
heavy: B1 heavy with G398T
light: B1 light
notes: as for B1
B3: M103205H795-MY178 / M103202L889-SK1 (antibody, human IgG1, kappa)
heavy: B1 heavy with G398Q
light: B1 light
notes: as for B1
B4: M103205H795-MY179 / M103202L889-SK1 (antibody, human IgG1, kappa)
heavy: B1 heavy with G398R
light: B1 light
notes: as for B1
B5: M103205H795-MY184 / M103202L889-SK1 (antibody, human IgG1, kappa)
heavy: B1 heavy with G398Y
light: B1 light
notes: as for B1
B6: M103205H795-MY183 / M103202L889-SK1 (antibody, human IgG1, kappa)
heavy: B1 heavy with G398W
light: B1 light
notes: as for B1
B7: M103205H795-MY174 / M103202L889-SK1 (antibody, human IgG1, kappa)
heavy: B1 heavy with G398I
light: B1 light
notes: as for B1
B8: M103205H795-MY177 / M103202L889-SK1 (antibody, human IgG1, kappa)
heavy: B1 heavy with G398N
light: B1 light
notes: as for B1
B9: M103205H795-MY175 / M103202L889-SK1 (antibody, human IgG1, kappa)
heavy: B1 heavy with G398K
light: B1 light
notes: as for B1
B10: M103205H795-MY182 / M103202L889-SK1 (antibody, human IgG1, kappa)
heavy: B1 heavy with G398V
light: B1 light
notes: as for B1
B11: M103205H795-MY176 / M103202L889-SK1 (antibody, human IgG1, kappa)
heavy: B1 heavy with G398L
light: B1 light
notes: as for B1
B12: M103205H795-MY173 / M103202L889-SK1 (antibody, human IgG1, kappa)
heavy: B1 heavy with G398H
light: B1 light
notes: as for B1
B13: M103205H795-MY180 / M103202L889-SK1 (antibody, human IgG1, kappa)
heavy: B1 heavy with G398S
light: B1 light
notes: as for B1

Target: T1, cynomolgus monkey FcγRIIa1 …
Assay: SPR (Biacore), antibody captured on chip, FcgR extracellular domain as analyte, 25 C

Kd [µM] | Binder
2.7 | B1
2.3 | B2
2 | B3
1.9 | B4
1.9 | B5
2.1 | B6
1.5 | B7
1.9 | B8
1.4 | B9
2.1 | B10
1.3 | B11
1.7 | B12
2.6 | B13

Target: T2, cynomolgus monkey FcγRIIa2 …
Assay: as above

Kd [µM] | Binder
2.3 | B1
2.3 | B2
2.1 | B3
2 | B4
2 | B5
2 | B6
1.6 | B7
1.8 | B8
1.5 | B9
2.2 | B10
1.4 | B11
1.8 | B12
2.7 | B13

Target: T3, cynomolgus monkey FcγRIIa3 …
Assay: as above

Kd [µM] | Binder
11 | B1
9.2 | B2
8.7 | B3
7.9 | B4
8.4 | B5
8.4 | B6
6.4 | B7
8.1 | B8
7.5 | B9
7.8 | B10
5 | B11
3 | B12
12 | B13

Target: T4, cynomolgus monkey FcγRIIb extracellular …
Assay: as above

Kd [µM] | Binder
1.2 | B1
1 | B2
0.95 | B3
0.98 | B4
0.98 | B5
0.97 | B6
0.65 | B7
0.83 | B8
0.71 | B9
0.96 | B10
0.62 | B11
0.78 | B12
1.3 | B13

target: T5, human FcγRIIaH extracellular domain …; assay: as above

Kd [µM] | Binder
17 | B1
1.3 | B2
1.2 | B3
11 | B4
1.1 | B5
1.2 | B6
0.81 | B7
10 | B8
0.86 | B9
1.3 | B10
0.7 | B11
1 | B12
1.7 | B13

Target: T6, human FcγRIIaR extracellular domain …
Assay: as above

Kd [µM] | Binder
3.1 | B1
2.5 | B2
2.3 | B3
2.1 | B4
2 | B5
2.1 | B6
1.4 | B7
2.8 | B8
1.8 | B9
2.1 | B10
1.3 | B11
1.9 | B12
3 | B13

target: T7, human FcγRIIb extracellular domain with …; assay: as above

Kd [µM] | Binder
1.8 | B1
14 | B2
13 | B3
12 | B4
1.1 | B5
1.1 | B6
0.85 | B7
11 | B8
0.83 | B9
1.2 | B10
7 | B11
10 | B12
19 | B13

target: T8, human FcγRIIIaV extracellular domain with C-terminal His-tag (human, UniProt P08637 17-208); assay: as above
T8 construct: Expressed in FreeStyle 293 cells and purified; also called FcgRIIIaV; not shown: C-terminal His-tag
T8 sequence (P08637 17-208 F176V): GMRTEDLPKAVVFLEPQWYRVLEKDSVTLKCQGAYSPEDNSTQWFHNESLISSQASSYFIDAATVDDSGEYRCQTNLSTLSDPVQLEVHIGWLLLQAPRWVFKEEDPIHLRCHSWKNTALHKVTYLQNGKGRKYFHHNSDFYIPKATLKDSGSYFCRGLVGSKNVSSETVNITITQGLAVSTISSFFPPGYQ

Kd [µM] | Binder
6.5 | B1
7.3 | B2
4.5 | B3
5.9 | B4
6.8 | B5
7.2 | B6
6.8 | B7
6.2 | B8
7.6 | B9
7 | B10
6.7 | B11
7 | B12
5.9 | B13
